Earlier results in article PMC9074927.
pKd: −log10 of the molar value. Where two headings read alike, the source gives them in different places.

Columns and labels:
[1] = target: histone H3 (Homo sapiens) (UniProt P68431)
[2] = target: histone H3 (Homo sapiens) (UniProt P68431); remark: listed apart in the source

Row | pKd [1] | pKd [2] | Substance
1 | 6.89 |  | CBX1 eReader chromodomain (from UniProt P83916)
2 |  | 6.22 | CBX1 chromodomain (from UniProt P83916)
